What is called EC50 is the concentration needed to bring the measured effect to its halfway point. As usually defined, the Kd is the constant that tells how readily two partners part at equilibrium.

Assay [1] addresses water-soluble variant of the μ-opioid receptor (wsMOR) (UniProt P35372). Description: MoS2 field-effect transistor biosensor.
For assay [2] the target is unchanged. Description: photonic crystal Fano resonance shift.

Values joined by “and” are separate entries in the source; they are usually repeats but may differ in a detail not shown here. Equal entries are not always repeated.

Regarding “DAMGO ([D-Ala2, N-MePhe4, Gly-ol]-enkephalin) (peptide)”, in assay [1], the EC50 was 1.2 nM and 1.5 nM; the Kd was 3.6 nM. Further, in assay [2], the EC50 is 1 nM and 1.2 nM; the Kd is 2.5 nM.
